Measurements as given in publication PMC8981238, “C-type cytochrome-initiated reduction of bacterial lytic polysaccharide monooxygenases” (Biochemical Journal, 2021).

Key:
[1] = biological target: CfAA10, LPMO from Cellulomonas fimi (Cellulomonas fimi)
[2] = biological target: CjAA10BΔCBM, cellulose active LPMO CjAA10B from Cellvibrio japonicus lacking its CBM (Cellvibrio japonicus)
[3] = substrate: O=C1O[C@H]([C@@H](O)CO)C(O)=C1O; test: Amplex Red / horseradish peroxidase coupled H2O2 production, initial rates; format: biochemical, Cellvibrio japonicus; settings: reductant varied, no polysaccharide, O2 from air, 50 mM sodium phosphate pH 6.0, room temperature, 2 µM LPMO
Excerpt: Amplex Red / horseradish peroxidase coupled H2O2 production, initial rates on CjAA10BΔCBM | concentration of CjX183, or ascorbate, was varied around calculated KM values

rate of oxidation of reduced CjX183 (10 µM, decay of A552, single exponential) with 0 to 50 µM CfAA10; rate rose linearly [1] [min⁻¹] | rate of oxidation of reduced CjX183 (10 µM, decay of A552, single exponential) with 0 to 50 µM CjAA10BΔCBM; rate rose linearly [2] [min⁻¹] | Binder | Km [3] [µM]
1.13 | 0.56 | CjX183, c-type cytochrome X183 domain of Cbp2D from Cellvibrio japonicus (domain or fragment, heme c covalently linked via thioether linkages to Cys19 and Cys22 (numbering of the structure); disulfide bond between cysteines 74 and 78) GYLVGDATRGANLWNTQTCVACHGVDGERNASGTPALTPLNPNRDLYRHSRDTQDRALRDFISMWMPQGNEGSCTGQCAADIEAFIRTW | 
 |  | CjAA10BΔCBM (Cellvibrio japonicus Ueda107) (protein, AA10 catalytic part, C-terminal CBM deleted, from pET22-CjAA10B) HGFVDSPGARNYFCGAVTKPDHVMNGVARYPECAGAFANDFNGGYSYMSVLTHHQGRKVLGPVARNVCGFDSETWNGGKTPWDNAINWPVNNINSGTLTFSWDISNGPHFDDTSDFRYWITKPGFVYQVGRELTWADFEDQPFCDLAYNDDNPGAYPNVRADKPNTHFHTTCTVPARTGRHVIYAEWGREPPTYERFHGCIDVQIGGGSNSSVPVSSSSSSRSSSSSSLAPSSSSRSSSSSSSVSSSRSSSSSVVSSSSSSRPASSSSSSTGGS | 5.8 ± 0.3
